Paper PMC9612522

Target: His-Pak4cat (UniProt O96013)
Sequence of UniProt O96013 (O96013 286-591): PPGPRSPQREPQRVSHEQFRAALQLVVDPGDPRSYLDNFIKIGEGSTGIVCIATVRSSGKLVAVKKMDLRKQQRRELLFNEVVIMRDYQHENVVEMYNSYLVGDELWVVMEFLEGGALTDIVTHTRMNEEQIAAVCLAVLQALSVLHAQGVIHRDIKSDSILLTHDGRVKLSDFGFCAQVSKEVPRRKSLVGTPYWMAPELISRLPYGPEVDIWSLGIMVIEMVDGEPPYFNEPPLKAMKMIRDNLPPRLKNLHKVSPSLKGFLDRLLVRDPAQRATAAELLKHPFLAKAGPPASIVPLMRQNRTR

Sequence of GST-Inka1-iBox (Q96EL1 166-203): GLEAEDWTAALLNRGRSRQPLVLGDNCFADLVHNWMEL
Sequence of GST-Inka2-iBox (Q9NTI7 133-193): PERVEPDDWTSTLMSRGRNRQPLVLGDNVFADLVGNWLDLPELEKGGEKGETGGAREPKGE

“GST-Inka2-iBox (from UniProt Q9NTI7 133-193) (domain or fragment)” was tested, and the IC50 of inhibition of His-Pak4cat kinase activity (in vitro kinase assay, ADP-Glo luminescence, AKT1 peptide substrate; dose-response with 0.75 ng-400 ng of GST-Inka2-iBox) was 60.3 nM.
For “GST-Inka1-iBox (from UniProt Q96EL1 166-203) (domain or fragment)”, the IC50 of inhibition of His-Pak4cat kinase activity (in vitro kinase assay, ADP-Glo luminescence, AKT1 peptide substrate; dose-response with 0.75 ng-400 ng of GST-Inka1-iBox) was 67.7 nM.
